Assay results taken from US20200263158.

Experiments:
[1] = test system: blue casein (zymogram gel substrate)
[2] = target: T1, tau FRET peptide OP-002, MCA-GGQVEVKSE{Lys(DNP)}
T1 chain: GGQVEVKSE

[3] = target: T2, tau 4R2N peptide (amino acids 335-353)
T2 chain: GQVEVKSEKLDFKDRVQSK

recombinant human tau 4R2N (full-length tau protein)
autoproteolysis, N-terminal Edman sequencing of fragment F3: The N-terminal sequence of fragment F3 was determined to be SEKLDF corresponding to amino acids 341-346 of Tau 4R2N | autoproteolysis, N-terminal Edman sequencing of fragments 1-4: The N-terminal sequence of the four fragments was the same: SKDGTG | zymogram, clearing of blue casein [1]: tau had the ability to cut the casein protein substrate in the zymogram

B1: Tau 4R2N 260-340 (TP-81) (protein)
chain: MIGSTENLKHQPGGGKVQIINKKLDLSNVQSKCGSKDNIKHVPGGGSVQIVYKPVDLSKVTSKCGSLGNIHHKPGGGQVEVK
fluorescence of FRET peptide, plate reader [2]: Tau 4R2N 260-340 cuts tau FRET peptide

B2: TP-210 (Tau 4R2N 131-340) (protein)
chain: MSKDGTGSDDKKAKGADGKTKIATPRGAAPPGQKGQANATRIPAKTPPAPKTPPSSGEPPKSGDRSGYSSPGSPGTPGSRSRTPSLPTPPTREPKKVAVVRTPPKSPSSAKSRLQTAPVPMPDLKNVKSKIGSTENLKHQPGGGKVQIINKKLDLSNVQSKCGSKDNIKHVPGGGSVQIVYKPVDLSKVTSKCGSLGNIHHKPGGGQVEVK
cleavage of peptide substrate, reverse-phase HPLC [3]: intact peptide was greatly diminished in the upper trace and replaced with two smaller peaks F1 and F2 that represent fragments generated by TP-210

B3: TP-99 (Tau 4R2N 241-340) (protein)
chain: MRLQTAPVPMPDLKNVKSKIGSTENLKHQPGGGKVQIINKKLDLSNVQSKCGSKDNIKHVPGGGSVQIVYKPVDLSKVTSKCGSLGNIHHKPGGGQVEVK
cleavage of peptide substrate, reverse-phase HPLC [3]: intact peptide which is greatly diminished in the upper trace and replaced with two smaller peaks F1 and F2 that represent fragments generated by TP-99
